# B1: DNA ligase IIIα, human wild-type full-length (1–922 aa) (enzyme)
# chain: MAEQRFCVDYAKRGTAGCKKCKEKIVKGVCRIGKVVPNPFSESGGDMKEWYHIKCMFEKLERARATTKKIEDLTELEGWEELEDNEKEQITQHIADLSSKAAGTPKKKAVVQAKLTTTGQVTSPVKGASFVTSTNPRKFSGFSAKPNNSGEAPSSPTPKRSLSSSKCDPRHKDCLLREFRKLCAMVADNPSYNTKTQIIQDFLRKGSAGDGFHGDVYLTVKLLLPGVIKTVYNLNDKQIVKLFSRIFNCNPDDMARDLEQGDVSETIRVFFEQSKSFPPAAKSLLTIQEVDEFLLRLSKLTKEDEQQQALQDIASRCTANDLKCIIRLIKHDLKMNSGAKHVLDALDPNAYEAFKASRNLQDVVERVLHNAQEVEKEPGQRRALSVQASLMTPVQPMLAEACKSVEYAMKKCPNGMFSEIKYDGERVQVHKNGDHFSYFSRSLKPVLPHKVAHFKDYIPQAFPGGHSMILDSEVLLIDNKTGKPLPFGTLGVHKKAAFQDANVCLFVFDCIYFNDVSLMDRPLCERRKFLHDNMVEIPNRIMFSEMKRVTKALDLADMITRVIQEGLEGLVLKDVKGTYEPGKRHWLKVKKDYLNEGAMADTADLVVLGAFYGQGSKGGMMSIFLMGCYDPGSQKWCTVTKCAGGHDDATLARLQNELDMVKISKDPSKIPSWLKVNKIYYPDFIVPDPKKAAVWEITGAEFSKSEAHTADGISIRFPRCTRIRDDKDWKSATNLPQLKELYQLSKEKADFTVVAGDEGSSTTGGSSEENKGPSGSAVSRKAPSKPSASTKKAEGKLSNSNSKDGNMQTAKPSAMKVGEKLATKSSPVKVGEKRKAADETLCQTKVLLDIFTGVRLYLPPSTPDFSRLRRYFVAFDGDLVQEFDMTSATHVLGSRDKNPAAQQVSPEWIWACIRKRRLVAPC
# B2: Aprataxin (APTX), human wild-type full-length (enzyme)
# chain: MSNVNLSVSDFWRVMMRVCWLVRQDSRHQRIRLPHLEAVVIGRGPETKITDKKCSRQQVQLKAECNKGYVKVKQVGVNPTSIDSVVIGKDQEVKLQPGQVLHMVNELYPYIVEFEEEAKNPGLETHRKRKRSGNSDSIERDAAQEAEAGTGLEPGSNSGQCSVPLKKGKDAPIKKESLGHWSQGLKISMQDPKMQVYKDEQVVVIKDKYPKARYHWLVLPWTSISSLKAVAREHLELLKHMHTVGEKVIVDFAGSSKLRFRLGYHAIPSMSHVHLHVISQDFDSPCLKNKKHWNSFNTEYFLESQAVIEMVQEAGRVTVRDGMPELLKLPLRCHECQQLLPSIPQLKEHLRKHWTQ
# Legend:
# Assay in all cases: SPR
# [1] = biological target: XRCC1 cancer-associated variant R194W (human, UniProt P18887 1-633, R194W)
# [2] = biological target: XRCC1 cancer-associated variant Y576S (human, UniProt P18887 1-633, Y576S)
# [3] = biological target: XRCC1 cancer-associated variant P161L (human, UniProt P18887 1-633, P161L)
# [4] = biological target: XRCC1 cancer-associated variant R280H (human, UniProt P18887 1-633, R280H)
# [5] = biological target: XRCC1 cerebellar ataxia-related K431N mutant (human, UniProt P18887 1-633, K431N)
Binder,Kd [1] [nM],Kd [2] [nM],Kd [3] [nM],Kd [4] [nM],Kd [5] [nM]
B1,44.9,50.4,37.3,43.6,
B2,686,422,320,569,301
